Measurements taken from publication PMC3229523, “Identification of Lactoferricin B Intracellular Targets Using an Escherichia coli Proteome Chip” (PLoS ONE, 2011).
Ends that are not written are not given here. * marks the point of attachment. Biotin = O=C1N[C@H]2[C@H](CS[C@H]2CCCCC(=O)*)N1

How the values were obtained:
Experiment in all cases: peptide or protein array; E. coli proteome chip: purified His-tagged proteins printed in duplicate on Fullmoon slides, blocked with 1% BSA; 10 nM N-terminal biotinylated LfcinB with 1% BSA, room temperature, 1 h; detected with DyLight 649-labeled streptavidin, ratio to DyLight 549-labeled anti-His antibody; ProCAT normalisation, local cut-off; triplicate chips
Conditions in all cases: both partners purified
[1] = molecular target: T1, YcgK (E. coli K-12, UniProt P76002 23-133)
T1 construct: YcgK, E. coli K-12
T1 sequence (looked up): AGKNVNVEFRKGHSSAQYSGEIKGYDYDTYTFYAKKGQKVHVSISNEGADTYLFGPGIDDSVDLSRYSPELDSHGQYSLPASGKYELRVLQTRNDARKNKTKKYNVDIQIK

[2] = molecular target: T2, YibN (E. coli K-12, UniProt P0AG27 1-143)
T2 construct: YibN, E. coli K-12
T2 sequence (looked up): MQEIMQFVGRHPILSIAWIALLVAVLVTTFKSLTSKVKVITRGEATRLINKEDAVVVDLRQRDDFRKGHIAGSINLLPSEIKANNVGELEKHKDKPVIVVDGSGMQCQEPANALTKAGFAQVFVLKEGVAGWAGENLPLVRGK

[3] = molecular target: T3, YhhI (E. coli K-12, UniProt P28912 1-378)
T3 construct: YhhI, E. coli K-12
T3 sequence (looked up): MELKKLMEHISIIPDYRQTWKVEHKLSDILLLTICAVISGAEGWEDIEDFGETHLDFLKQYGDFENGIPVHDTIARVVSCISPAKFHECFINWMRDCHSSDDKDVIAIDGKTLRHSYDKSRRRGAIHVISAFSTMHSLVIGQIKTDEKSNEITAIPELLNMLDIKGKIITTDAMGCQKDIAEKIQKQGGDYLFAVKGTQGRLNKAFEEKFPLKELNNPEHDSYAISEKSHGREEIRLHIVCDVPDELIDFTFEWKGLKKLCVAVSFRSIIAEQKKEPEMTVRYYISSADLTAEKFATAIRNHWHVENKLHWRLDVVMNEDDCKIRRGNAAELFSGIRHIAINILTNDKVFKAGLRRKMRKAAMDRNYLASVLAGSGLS

[4] = molecular target: T4, MdoG (E. coli K-12, UniProt P33136 23-511)
T4 construct: MdoG, E. coli K-12
T4 sequence (looked up): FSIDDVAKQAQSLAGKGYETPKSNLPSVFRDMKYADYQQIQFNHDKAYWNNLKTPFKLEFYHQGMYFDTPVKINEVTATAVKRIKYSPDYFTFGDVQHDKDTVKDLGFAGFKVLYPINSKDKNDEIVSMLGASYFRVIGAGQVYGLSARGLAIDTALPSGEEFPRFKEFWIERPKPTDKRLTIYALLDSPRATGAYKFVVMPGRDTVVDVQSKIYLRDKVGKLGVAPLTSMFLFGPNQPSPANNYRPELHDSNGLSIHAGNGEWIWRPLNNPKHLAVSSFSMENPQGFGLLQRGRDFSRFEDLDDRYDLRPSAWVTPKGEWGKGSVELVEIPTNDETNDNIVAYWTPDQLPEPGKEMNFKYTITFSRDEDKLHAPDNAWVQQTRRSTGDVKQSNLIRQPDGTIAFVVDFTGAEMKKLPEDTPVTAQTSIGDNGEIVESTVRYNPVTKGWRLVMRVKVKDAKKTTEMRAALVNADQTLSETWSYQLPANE

[5] = molecular target: T5, Rob (E. coli K-12, UniProt P0ACI0 1-289)
T5 construct: Rob, E. coli K-12
T5 sequence (looked up): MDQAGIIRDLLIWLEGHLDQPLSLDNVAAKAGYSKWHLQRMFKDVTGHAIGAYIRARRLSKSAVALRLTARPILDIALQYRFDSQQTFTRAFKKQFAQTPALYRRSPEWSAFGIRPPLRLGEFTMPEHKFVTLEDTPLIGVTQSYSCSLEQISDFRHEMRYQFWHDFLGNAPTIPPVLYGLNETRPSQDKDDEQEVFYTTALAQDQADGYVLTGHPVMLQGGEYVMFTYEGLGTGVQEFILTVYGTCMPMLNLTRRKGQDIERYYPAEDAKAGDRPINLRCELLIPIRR

[6] = molecular target: T6, HemK (E. coli K-12, UniProt P0ACC1 1-277)
T6 construct: HemK, E. coli K-12
T6 sequence (looked up): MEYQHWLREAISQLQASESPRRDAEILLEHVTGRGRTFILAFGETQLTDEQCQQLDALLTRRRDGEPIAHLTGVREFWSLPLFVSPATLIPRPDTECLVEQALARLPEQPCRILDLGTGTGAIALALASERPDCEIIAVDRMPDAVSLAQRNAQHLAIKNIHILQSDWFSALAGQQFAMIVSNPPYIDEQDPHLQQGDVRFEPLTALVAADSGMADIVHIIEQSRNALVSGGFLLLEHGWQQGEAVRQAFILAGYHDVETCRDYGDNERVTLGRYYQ

Measured: binding result

B1: N-terminal biotinylated Lactoferricin B (peptide, UniProt P24627 36-60, looked up)
peptide: Biotin-FKCRRWQWRMKKLGAPSITCVRRAF
modifications: ends and bridges not checked
notes: lactoferricin B (LfcinB), cationic antimicrobial peptide of 25 amino acids; also called biotinylated LfcinB; biotin-labeled LfcinB; source: bought: Kelowna Inc
binds: [1] | [2] | [3] | [4] | [5] | [6]
